Fewer inactive variants are shown than the library holds.
Columns and labels:
biotinyl-Leu-oxazolone = assay: self-aminoacylation, catalytic enhancement (BLO) (fold over background); higher = more active; k-Seq, kA / k0A0; sequences stand for … in GGGAAUGGAUCCACAUCUACGAAUUC…UUCACUGCAGACUUGACGAAGCUG
How it was run: (§1)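 Catalytic enhancement equals the median kA over the uncatalyzed rate, the latter read from the low-activity peak of a bimodal Gaussian fit. Values of kA came from fitting each sequence's fraction reacted to a pseudo-first-order model, with 1000 bootstraps. Reacted RNA was captured with streptavidin and quantified by triplicate qPCR and Illumina sequencing after 90 minutes at room temperature with 2–1250 μM biotinyl-aminoacyl-oxazolone and 0.43 μM mutagenized RNA pools bearing a 21-nt variable region.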

biotinyl-Ile-oxazolone = assay: self-aminoacylation, catalytic enhancement (BIO) (fold over background); higher = more active; k-Seq, kA / k0A0; sequences stand for … in GGGAAUGGAUCCACAUCUACGAAUUC…UUCACUGCAGACUUGACGAAGCUG
How it was run: as §1

biotinyl-Val-oxazolone = assay: self-aminoacylation, catalytic enhancement (BVO) (fold over background); higher = more active; k-Seq, kA / k0A0; sequences stand for … in GGGAAUGGAUCCACAUCUACGAAUUC…UUCACUGCAGACUUGACGAAGCUG
How it was run: as §1

biotinyl-Met-oxazolone = assay: self-aminoacylation, catalytic enhancement (BMO) (fold over background); higher = more active; k-Seq, kA / k0A0; sequences stand for … in GGGAAUGGAUCCACAUCUACGAAUUC…UUCACUGCAGACUUGACGAAGCUG
How it was run: as §1

biotinyl-Phe-oxazolone = assay: self-aminoacylation, catalytic enhancement (BFO) (fold over background); higher = more active; k-Seq, kA / k0A0; sequences stand for … in GGGAAUGGAUCCACAUCUACGAAUUC…UUCACUGCAGACUUGACGAAGCUG
How it was run: as §1

biotinyl-Trp-oxazolone = assay: self-aminoacylation, catalytic enhancement (BWO) (fold over background); higher = more active; k-Seq, kA / k0A0; sequences stand for … in GGGAAUGGAUCCACAUCUACGAAUUC…UUCACUGCAGACUUGACGAAGCUG
How it was run: as §1

Sequence	self-aminoacylation (biotinyl-Leu-oxazolone)	self-aminoacylation (biotinyl-Ile-oxazolone)	self-aminoacylation (biotinyl-Val-oxazolone)	self-aminoacylation (biotinyl-Met-oxazolone)	self-aminoacylation (biotinyl-Phe-oxazolone)	self-aminoacylation (biotinyl-Trp-oxazolone)
AUGACCCUGGUGAUCGAGUGA [Fam2.1 aminoacylation ribozyme variant]	5.51	2.8	2.44	4.4	27.3	5
AUUACACUGGUCAUCGUGUGA [Fam2.1 aminoacylation ribozyme variant]	2.8	1.75	1.56	3.15	13.8	3
AUUCACAUAGGACAUCGGGUG [Fam2.2 aminoacylation ribozyme variant]	4.24	2.84	3.22	3.84	17.7	3.93
CCACACUUCGAGCAAACGGUC [Fam1B.1 aminoacylation ribozyme variant]	0.632	0.678	0.655	0.663	0.648	0.57
CCACACUUCAAGCAUUCGGAC [Fam1B.1 aminoacylation ribozyme variant]	0.681	1.35	1.29	0.977	0.829	0.71
CCCCACUUCAAGCAAUCGGCC [Fam1B.1 aminoacylation ribozyme variant]	2.75	2.74	3.8	3.04	20.8	11.3
AUUACCCUCGUCAUCGCGUGA [Fam2.1 aminoacylation ribozyme variant]	6.51	3.63	4.02	6.01	51.9	6.81
ACACACUGCAAGCAAUCGGUC [Fam1B.1 aminoacylation ribozyme variant]	1.48	1.43	1.33	1.23	1.36	1.73
UAGUUUGCUAAUAUUCGCAAG [Fam3.1 aminoacylation ribozyme variant]	1.04	1.3	1.26	1.22	1.71	1.21
AAUACCCUGCUCAUCGAGUGA [Fam2.1 aminoacylation ribozyme variant]	1.6	1.08	1.3	1.22	1.69	1.17
CUACUUCACACAAUUGGUCUG [Fam1A.1 aminoacylation ribozyme variant]	0.729	0.948	0.739	1	0.431	0.828
AUUCACCUAGAUCAUCGGGGG [Fam2.2 aminoacylation ribozyme variant]	2.08	1.79	1.91	2.29	8.71	2.13
AAGUAAGCUAAUAGUCGCAAG [Fam3.1 aminoacylation ribozyme variant]	1.43	1.55	1.33	1.18	2.82	1.5
AUUACCAUCGUCAUCGAGUGA [Fam2.1 aminoacylation ribozyme variant]	3.6	2.21	2.32	3.19	5.68	3.53
CCACACUUCAAGCACUCGGGC [Fam1B.1 aminoacylation ribozyme variant]	2.62	2.58	3.61	3.49	13.2	3.37
CUACUUCAAAGAAUCAGUCUG [Fam1A.1 aminoacylation ribozyme variant]	0.68	0.759	0.803	0.677	3.34	1.7
AUUACCCUGUUCAUCGAGUUA [Fam2.1 aminoacylation ribozyme variant]	1.12	1.19	1.12	1.13	0.909	0.616
AUUCAGCUAGGUCAUAGGGUG [Fam2.2 aminoacylation ribozyme variant]	1.24	0.975	1.23	1.09	1.15	1.17
AUUCACCUAGGUCAUCCGAUG [Fam2.2 aminoacylation ribozyme variant]	1.24	1.43	1.95	1.54	2.62	1.09
AUUAACCUAGGUAAUCGGGUG [Fam2.2 aminoacylation ribozyme variant]	2.3	1.78	1.66	2.62	12.5	2.42
CUACUUCCAACACUCGGUCUG [Fam1A.1 aminoacylation ribozyme variant]	1.01	0.978	0.958	1.03	0.522	0.796
AUUGACCUAGGUCAUGGGGUG [Fam2.2 aminoacylation ribozyme variant]	3.32	3.08	2.9	2.92	17	3.74
AUUACCCUGCUCAUCGCGUGA [Fam2.1 aminoacylation ribozyme variant]	16.4	7.11	7.29	17.1	152	16.9
AAGAUUGCUAAUAGUCGCGAG [Fam3.1 aminoacylation ribozyme variant]	1.1	1.3	1.44	1.94	1.27	1.1
CCACACUUCAAGCACUCGGUC [Fam1B.1 aminoacylation ribozyme variant]	0.757	0.855	0.996	0.777	0.887	0.733

Reference: the supplement of paper PMC9233669
